Here are results for one molecule from patent US20260008856A1 (BLUEFIN BIOMEDICINE, published 2026).

Experiment [1] concerns the target T1, huIL1RAP ECD recombinant protein (human, UniProt Q9NPH3 21-367).
T1 construct: also called recombinant human IL1RAP-ECD; recombinant human IL1RAP; not shown: C-terminal histidine tag for purification
The experiment in a line: affinity for human IL1RAP (Octet); Table 7 prints 1.4 nM for the same antibody. On the technique in general: Biolayer interferometry detects binding as a change in optical thickness at a sensor tip.

The target in experiment [2] is T2, mouse IL1RAP (Met1-Val570 plus Myc-DDK) on transfected 293 cells (Mus musculus, UniProt Q61730 21-570).
T2 construct: whole, on cells; also called MR223729
T2 sequence (Q61730 21-570): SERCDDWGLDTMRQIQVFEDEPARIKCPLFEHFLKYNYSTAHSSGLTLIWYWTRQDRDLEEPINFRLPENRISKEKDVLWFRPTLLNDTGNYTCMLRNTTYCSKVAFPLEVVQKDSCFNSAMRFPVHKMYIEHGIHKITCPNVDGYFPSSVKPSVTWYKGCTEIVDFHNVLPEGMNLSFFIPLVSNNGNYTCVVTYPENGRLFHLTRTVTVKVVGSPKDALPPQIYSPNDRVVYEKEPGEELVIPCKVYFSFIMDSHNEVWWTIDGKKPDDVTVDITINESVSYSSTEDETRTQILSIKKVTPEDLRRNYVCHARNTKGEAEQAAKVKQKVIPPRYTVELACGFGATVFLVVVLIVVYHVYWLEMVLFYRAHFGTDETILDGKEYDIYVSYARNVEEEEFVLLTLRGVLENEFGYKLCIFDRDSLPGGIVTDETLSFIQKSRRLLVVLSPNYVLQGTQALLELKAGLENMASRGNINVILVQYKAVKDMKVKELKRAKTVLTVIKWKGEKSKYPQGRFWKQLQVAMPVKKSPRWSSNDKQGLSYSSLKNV
The experiment in a line: flow cytometry on 293 cells expressing mouse IL1RAP (293-puro-mouseIL1RAP) vs 293T-puro [cont.]. Here is the method:
(§1) Staining for flow cytometry was performed in 1× cold PBS with 0.5% BSA. Primary antibodies (1 ug/ml) were incubated with live cells on ice for 30 minutes, after a brief wash, cells were incubated with Alexa Fluro® 488-conjugated anti-human IgG secondary antibody @1:1000 (709-546-149, Jackson ImmunoResearch). Acquisition of the data was performed on a MACSQuant® Flow Cytometers (Miltenyi Biotec) and analyzed with FlowJo software.

Experiment [3] concerns the target T1, huIL1RAP ECD recombinant protein. The experiment in a line: Octet BLI, antibody on Protein A biosensor, recombinant huIL1RAP ECD. As to the method: Affinity: The affinity of antibodies to various recombinant IL1RAP protein was determined on an Octet Red™ instrument. After loading reagents into a 96-well plate, the Octet Red™ with Protein A-conjugated biosensors was programmed as follows: 30 seconds for baseline #1; 120 seconds to immobilize the antibody; 30 seconds for baseline #2; 300 seconds for association of antibody to recombinant IL1RAP; and 300-600 seconds for dissociation of recombinant IL1RAP from the antibody.

In experiment [4] the target is T3, rat IL1RAP (Met1-Val570 plus Myc-DDK) on transfected 293 cells (Rattus norvegicus, UniProt Q63621 21-570).
T3 construct: whole, on cells; also called RR213032
T3 sequence (Q63621 21-570): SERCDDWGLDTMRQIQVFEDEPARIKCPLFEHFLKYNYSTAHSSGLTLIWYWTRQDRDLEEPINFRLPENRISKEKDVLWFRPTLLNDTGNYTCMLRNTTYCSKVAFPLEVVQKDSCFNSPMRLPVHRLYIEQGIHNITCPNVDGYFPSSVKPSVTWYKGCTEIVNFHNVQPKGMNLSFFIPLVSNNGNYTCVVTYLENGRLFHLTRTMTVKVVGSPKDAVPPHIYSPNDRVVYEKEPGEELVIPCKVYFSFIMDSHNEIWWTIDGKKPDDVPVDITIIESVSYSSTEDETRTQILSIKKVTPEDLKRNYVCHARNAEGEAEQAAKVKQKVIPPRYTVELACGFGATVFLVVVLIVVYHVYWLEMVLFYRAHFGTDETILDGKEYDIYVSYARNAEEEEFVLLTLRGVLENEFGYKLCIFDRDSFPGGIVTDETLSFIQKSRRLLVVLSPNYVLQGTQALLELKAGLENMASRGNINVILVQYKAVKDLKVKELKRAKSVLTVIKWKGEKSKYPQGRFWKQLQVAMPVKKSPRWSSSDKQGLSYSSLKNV
The experiment in a line: flow cytometry on 293 cells expressing rat IL1RAP (293-puro-ratIL1RAP) vs 293T-puro [cont.]. As to the method: as §1
(In general: A flow cytometer gives signals particle by particle.)

B1: 32C12_21A4 (antibody, V domains shown)
VH: QVQLVESGGGVVQPGRSLRLSCAASGFTFRNYGIHWVRQAPGKGLEWVAVIWYDGSNKFYADSVKGRFTISRDNSKNTLYLQMNSLRVEDTAVYYCAREEGIAVAPFDYWGQGTLVTVSS
VL: DIQMTQSPSSLSASVGDRVAITCRANQSIASYLNWYQQKPGKAPKLLIYGASSLQNGVPSRFSGSGSRTDFTLTISSLQPEDFATYYCQQSYSTEITFGQGTRLEIK
As for B1, the figures for the dissociation constant Kd in experiment [1] and in experiment [3] were 1 nM and 1.4 nM, respectively. Further, the binding result in experiment [2] and in experiment [4] was “no binding (tested: 1 ug/ml)” each time.
